Results as given in patent US20220387586A1 (Hoffmann-La Roche, published 2022).

T1: LAG3 on PD1+LAG3+ human U2OS cells (Homo sapiens (Human), UniProt P18627 23-525)
T1 construct: also called cellular LAG3 (dimerization assay); not shown: subunit of the reporter enzyme fused to the cytosolic C-terminus
T1 sequence: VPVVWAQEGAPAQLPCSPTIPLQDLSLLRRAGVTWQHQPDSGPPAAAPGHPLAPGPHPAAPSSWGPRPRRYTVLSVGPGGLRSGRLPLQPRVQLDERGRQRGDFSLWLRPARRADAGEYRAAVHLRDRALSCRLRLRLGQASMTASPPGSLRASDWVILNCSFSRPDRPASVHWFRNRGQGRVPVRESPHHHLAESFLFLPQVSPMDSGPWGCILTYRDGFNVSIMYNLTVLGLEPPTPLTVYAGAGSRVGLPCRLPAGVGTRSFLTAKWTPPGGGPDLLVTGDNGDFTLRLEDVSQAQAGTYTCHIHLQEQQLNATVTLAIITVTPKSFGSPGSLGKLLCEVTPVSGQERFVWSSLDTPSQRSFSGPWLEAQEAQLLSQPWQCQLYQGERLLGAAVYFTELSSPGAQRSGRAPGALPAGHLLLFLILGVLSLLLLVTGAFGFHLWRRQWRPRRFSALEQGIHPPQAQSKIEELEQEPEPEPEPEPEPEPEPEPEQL

T2: LAG3 on cells (recombinant CHO cells expressing Lag3) (human, UniProt P18627 29-525)
T2 sequence: T1 sequence

T3: recombinant Human LAG-3 Fc Chimera Protein (R&D Systems, 2319-L3) (human, UniProt P18627 29-450)
T3 construct: Bought protein; also called huLAG3; not shown: Fc part of the chimera
T3 sequence: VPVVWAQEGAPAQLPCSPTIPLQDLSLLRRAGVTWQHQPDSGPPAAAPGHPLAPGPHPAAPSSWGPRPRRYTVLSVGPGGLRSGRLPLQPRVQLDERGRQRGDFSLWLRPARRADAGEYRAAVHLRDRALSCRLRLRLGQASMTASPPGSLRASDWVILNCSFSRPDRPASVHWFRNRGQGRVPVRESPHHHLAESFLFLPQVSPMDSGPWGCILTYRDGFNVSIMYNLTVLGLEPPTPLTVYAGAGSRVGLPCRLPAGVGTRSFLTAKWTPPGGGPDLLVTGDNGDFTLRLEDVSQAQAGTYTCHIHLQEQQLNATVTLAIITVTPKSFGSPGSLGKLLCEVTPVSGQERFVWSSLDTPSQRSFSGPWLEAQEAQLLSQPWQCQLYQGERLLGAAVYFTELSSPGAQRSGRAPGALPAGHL

B1: PD1/LAG3 0927 (bispecific antibody, human IgG1, kappa, L234A L235A)
heavy 1: not shown
heavy 2: EVQLLESGGGLVQPGGSLRLSCAASGFIFDDYTMNWVRQAPGKGLEWVAVISWDGGGTYYTDSVKGRFTISRDDFKNTLYLQMNSLRAEDTAVYYCAKGLTDTTLYGSDYWGQGTLVTVSSASTKGPSVFPLAPSSKSTSGGTAALGCLVEDYFPEPVTVSWNSGALTSGVHTFPAVLQSSGLYSLSSVVTVPSSSLGTQTYICNVNHKPSNTKVDEKVEPKSCDKTHTCPPCPAPEAAGGPSVFLFPPKPKDTLMISRTPEVTCVVVDVSHEDPEVKFNWYVDGVEVHNAKTKPREEQYNSTYRVVSVLTVLHQDWLNGKEYKCKVSNKALGAPIEKTISKAKGQPREPQVCTLPPSRDELTKNQVSLSCAVKGFYPSDIAVEWESNGQPENNYKTTPPVLDSDGSFFLVSKLTVDKSRWQQGNVFSCSVMHEALHNHYTQKSLSLSPGK
light 1: EVQLLESGGGLVQPGGSLRLSCAASGFSFSSYTMSWVRQAPGKGLEWVATISGGGRDIYYPDSVKGRFTISRDNSKNTLYLQMNSLRAEDTAVYYCVLLTGRVYFALDSWGQGTLVTVSSASVAAPSVFIFPPSDEQLKSGTASVVCLLNNFYPREAKVQWKVDNALQSGNSQESVTEQDSKDSTYSLSSTLTLSKADYEKHKVYACEVTHQGLSSPVTKSFNRGEC
light 2: not shown
notes: 1+1 CrossMAb Vh-VL, knobs into holes, IgG1 PGLALA
B2: PD1/LAG3 0799 (bispecific antibody, human IgG1, kappa, L234A L235A)
heavy 1: not shown
heavy 2: EVQLVESGGGLVQPGGSLRLACAASGFTFSDYAMSWVRQAPGKGLEWVSGIDNSGYYTYYTDSVKGRFTISRDDVKNTLYLQMNSLRAEDTAVYLCTKTHSGLIVNDAFDIWGQGTMVTVSSASTKGPSVFPLAPSSKSTSGGTAALGCLVEDYFPEPVTVSWNSGALTSGVHTFPAVLQSSGLYSLSSVVTVPSSSLGTQTYICNVNHKPSNTKVDEKVEPKSCDKTHTCPPCPAPEAAGGPSVFLFPPKPKDTLMISRTPEVTCVVVDVSHEDPEVKFNWYVDGVEVHNAKTKPREEQYNSTYRVVSVLTVLHQDWLNGKEYKCKVSNKALGAPIEKTISKAKGQPREPQVCTLPPSRDELTKNQVSLSCAVKGFYPSDIAVEWESNGQPENNYKTTPPVLDSDGSFFLVSKLTVDKSRWQQGNVFSCSVMHEALHNHYTQKSLSLSPGK
light 1: B1 light 1
light 2: not shown
notes: as for B1

Assays:
[1] = target: T1, LAG3 on PD1+LAG3+ human U2OS cells; experiment: cellular PD1/LAG3 dimerization assay on PD1+LAG3+ U2OS cells, chemoluminescence; the signal needs PD1 and LAG3 bound at once
Experimental: (§1) For this specific interaction, the cytosolic C-terminal ends of both receptors were individually fused to heterologous subunits of a reporter enzyme.
(§2) On the next day cell medium was discarded and replaced by fresh medium. Antibody or ligand dilutions were prepared and titrated amounts of indicated (bispecific) antibodies were added and incubated at 37° C. for 2 hours. Next, a substrate/buffer mix (e.g. PathHunterFlash detection reagent) was added and again incubated for 1h. For measuring chemoluminescence induced upon simultaneous binding and dimerization a Tecan infinite reader was used.

[2] = target: T4, PD1 on PD1+LAG3+ human U2OS cells (UniProt Q15116 25-288); experiment: as above
Experimental: as §1, §2

[3] = target: T1, LAG3 on PD1+LAG3+ human U2OS cells; experiment: cellular PD1/LAG3 dimerization assay, 7500 PD1+LAG3+ U2OS cells a well, 20 h at 37 °C, chemoluminescence; the signal needs PD1 and LAG3 bound at once
Experimental: (§3) Next, assay plates were equilibrated to room temperature and a substrate/buffer mix (PathHunterFlash detection reagent, Discoverx) was added and again incubated for 4h. For measuring chemoluminescence induced upon simultaneous binding and dimerization a SpectraMax L plate reader (Molecular Devices) was used.

[4] = target: T4, PD1 on PD1+LAG3+ human U2OS cells; experiment: as above
Experimental: as §3

[5] = target: full-length human PD1 on cells (human, UniProt Q15116 25-288); experiment: cell-based or functional assay
[6] = target: T2, LAG3 on cells (recombinant CHO cells …); experiment: cell-based or functional assay
[7] = target: T3, recombinant Human LAG-3 Fc Chimera …; experiment: ELISA on coated Human LAG-3 Fc Chimera (rel. EC50)
How it was run: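 Wells blocked 1 h at RT in PBS + 2% BSA + 0.05% Tween 20; bound antibody detected with goat anti-human Ig κ-HRP (1:2000, 1 h RT), then TMB substrate for 2-10 min. Absorbance read at 370/492 nm.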

T4 sequence (Q15116 25-288): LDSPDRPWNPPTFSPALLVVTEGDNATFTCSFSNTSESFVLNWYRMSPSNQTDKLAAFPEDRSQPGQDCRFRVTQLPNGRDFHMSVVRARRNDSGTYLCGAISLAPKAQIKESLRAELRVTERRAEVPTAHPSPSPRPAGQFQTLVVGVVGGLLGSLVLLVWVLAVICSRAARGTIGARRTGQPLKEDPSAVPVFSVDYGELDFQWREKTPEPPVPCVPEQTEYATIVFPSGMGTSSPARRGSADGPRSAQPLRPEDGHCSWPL
full-length human PD1 on cells, sequence (Q15116 25-288 limits assumed): as the sequence (Q15116 25-288) above

| Binder | EC50 (read off the curve) [1] [µg/mL] | EC50 (read off the curve) [2] [µg/mL] | EC50 (read off the curve) [3] [pM] | EC50 (read off the curve) [4] [pM] | EC50 [nM], PD-1 & LAG-3 combo reporter assay (NFAT luciferase) [5] [nM] | EC50 [nM], PD-1 & LAG-3 combo reporter assay (NFAT luciferase) [6] [nM] | EC50 [7] [pM] |
| --- | --- | --- | --- | --- | --- | --- | --- |
| B1 | ~0.02 | ~0.02 | ~50 | ~50 | 3.1 | 3.1 | 180 |
| B2 | ~0.02 | ~0.02 | – | – | – | – | 70 |
